From article PMC9478404
pKd: −log10 of the molar value.

Key:
Assay in all cases: ITC; DBD (500 μM) titrated into NRD (50 μM) at 19 °C; 150 mM NaCl, 20 mM Tris, 1 mM BME (pH 8); MicroCal VP-ITC; mean of three technical replicates
[1] = target: B-Myb NRD^510–600 (C-terminal half of the NRD) (human) (UniProt P10244)
[2] = target: B-Myb NRD^510–600 S577A (human) (UniProt P10244)
[3] = target: B-Myb NRD^510–600 T538A (human) (UniProt P10244)
Chain of B-Myb NRD^510–600 T538A (human) (P10244 510-600 T538A): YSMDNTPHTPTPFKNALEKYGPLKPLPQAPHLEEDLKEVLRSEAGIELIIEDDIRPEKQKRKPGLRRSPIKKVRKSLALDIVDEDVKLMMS

Chain of B-Myb NRD^510–600 S577A (human) (P10244 510-600 S577A): as the sequence (P10244 510-600 T538A) above, with A29T, S68A counted along it
Chain of B-Myb NRD^510–600 (C-terminal half of the NRD) (human) (P10244 510-600): as the sequence (P10244 510-600 T538A) above, with A29T counted along it

Substance: B-Myb DNA-binding domain (B-Myb^34–183) (from UniProt P10244-1 34-183) (domain or fragment)
- pKd [1]: 5.31
- pKd [2]: 5.49
- pKd [3]: 5.19
